The data set can be described thus: soluble on expression in E. coli; label from the status in PepcDB or PDB records.
Take “MKGIMVQGTASDVGKSLICTALCRIFARRGYKVTPFKSQNMSNNSYITVEGLEIGRAQGIQAEAAMEEASVYMNPILLKPRNDREAEIVCFGQAVDTVSGVKYRDGFYKRGLEAIKQALATLSQSFDMVVIEGAGSPVEVNLNDRELVNMKVAELADVPVILVADIERGGVFASLYGTLELLQPNERKRVVGIIVNKFRGDPELFSSGVQWIEQHLGVPVLGVLPHLPGVRIEGEDSLSKGQVTSVLPRDQSIDIAVLDLPYLSNYTDLEPFRYEEDVAIRFVSSVDALGRPDAIILPGTKSTFHDLQILKEKGFKERLHEYVTTDGTVVAICGGFQMLGHRLIDVAGSDTGIKGATIDGLDLAPVETRFAEKKKTVRSLGQLLHPFGTAKDIYGFEIHLGETDIVDPSIPAFLRVGNHTDGVYLHEGRLIGTYFHHLFFNDDFRSGWLNTLRRKKGLRERPTVELEKCRRASYDQLADEVERVLHVDSLLEKMERWGETS”: the “soluble on expression in E. coli” value is “soluble”.

“MKGLFVTIEGPEGSGKTTLIQSLLPYFEQKEQKVMATREPGGIAISEDIRTILHKQEYTMMEARTEALLYAAARRQHLVEKVMPALNEDYLVLCDRFIDSSLAYQGYARGLGMDKVFEINRFATEDCMPSLTIYLDIEPEVGLARIAKDAGREVNRLDMEDISFHKRVREGYLQVVERFSDRIVLVNADQPMEKLIEEVIQVIEDKLL”: the “soluble on expression in E. coli” value was “soluble”.

As for “MKHSLPDLPYDYADLEPVISHEIMQLHHQKHHATYVNNLNQIEEKLHEAVSKGNVKEAIALQPALKFNGGGHINHSIFWTNLAKDGGEPSAELLTAIKSDFGSLDNLQKQLSASTVAVQGSGWGWLGYCPKGKILKVATCANQDPLEATTGLVPLFGIDVWEHAYYLQYKNVRPDYVNAIWKIANWKNVSERFAKAQQ”, the “soluble on expression in E. coli” value is given as “soluble”.

Regarding “MKICAVVVTYNRKDLLVECLEALRRQTGPLDAIYIIDNASTDGTPHLLMEGGYIDDPDGSVKNLPDHHGRSLKIVYVRLNENTGGAGGFYKGVRRAFHDEYDWIWLMDDDVEPEEYTLEKLLKASERIPEDVSAVAPVRFFQGSLFISETKTFNFRNPLKHFTYDFITDDDLKEEYFKISAISFEGLLIKREAIERIGFPDKSLFIIADDTDYAIRLRDYGPIYMVSGARLIKKVAAEPDFNWKGFYHLRNVIYLDRKYGENILVRYLRPLRTLIIVTYQCLKYKPSGFKYLLKAFWEGYTLKRGKTVKPGEFLEHHHHHH”, the “soluble on expression in E. coli” value is “soluble”.

Turning to “MKIDILDKGFVELVDVMGNDLSAVRAARVSFDMGLKDEERDRHLIEYLMKHGHETPFEHIVFTFHVKAPIFVARQWFRHRIASYNELSGRYSKLSYEFYIPSPERLEGYKTTIPPERVTEKISEIVDKAYRTYLELIESGVPREVARIVLPLNLYTRFFWTVNARSLMNFLNLRADSHAQWEIQQYALAIARIFKEKCPWTFEAFLKYAYKGDILKEVQV”, the “soluble on expression in E. coli” value is reported as “not soluble”.

Regarding “MKIEKTSNFAPINLLYKKKTSFNSRGIFLIIAFNNSSFNLIYKNNNKSYKSTRLNTILRKKNRVIEQVLDKDIIVVPLGGLGEIGMNCMLIGSKKRFILIDCGIMFTDLSHLGIQKVIPDINFLTHIQNLIEGLIITHGHEDHIGAINWVLPILRTDALVYTSRFVYNIISKRIDKQNYLFKKLFRIFDLKKRFQLGPFECEAFRVTHSIPDCCGFVIRSKYGLIVHTGDWKIDEFPLDGEKFDREFLESISKEKVLLMMSDSTNSLSHGRTASEKVVQDSLVSIITNPKIKGRIITTQFASNVFRLYSIKKAADISKKKICFLGTSLNSYLDASLLDGRAPFHPSELVQESELKNIDPDKIIIVTTGSQGEARSTLNLSSLDLSPRLSLNPYDTIIYSAKIIPGNDKKVVRMLNRISSHGCKIIYGNQAKIHTSGHAYEDELKEILKIVKPSYFLPVHGELISLNVHSSIALQNCGIKNTIVMRNGQVLSLESDNQNPLGFKLFNLSGEINLVNHYNTGSSILGSYADIGISDKIKISNEGIILISLEFVRIKESDTYVSFKSKLRISSRGIWIDRGKLNFIIKKLLFNILNKCRTNISIISLEQIISETMNYSCYKINRSNPEIIVYANELTNI”, the “soluble on expression in E. coli” value is listed as “soluble”.

“MKIGVLGLQGAVREHVRAIEACGAEAVIVKKSEQLEGLDGLVLPGGESTTMRRLIDRYGLMEPLKQFAAAGKPMFGTCAGLILLAKRIVGYDEPHLGLMDITVERNSFGRQRESFEAELSIKGVGDGFVGVFIRAPHIVEAGDGVDVLATYNDRIVAARQGQFLGCSFHPELTDDHRLMQYFLNMVKEAKMASSLK”: the “soluble on expression in E. coli” value is given as “soluble”.

In the case of “MKIKSIEARNISIPLNRPIHNPAFKFTHCKYTIVTVTTDEDITGWSFSFGMHHTKAVVDELAEILVGEEIDTRRLYEKMMRTQAVRWDRGGISMRALSAIDIALWDIVGKSCGLPLYRLMGCYREEIPVYYSGGHYPVDSTKTSDMLDYLEQDIGKGLDRGFSSFKIKIGGAAVNQDLERIAFCRKLIGPYRRLMVDAFCAYEADVIIPMAKKFEQYDIGFLEEPVALDDIPGCAYVAANVSMPVALGESHYTMAQFRDIINSKAARILQPDVAYVGGITGFMQYAGIAAYHGLRLAPHWCHDLSVQLALSIPQIRELEYMDQNSALFLIQKVIENPVTAKNGIVRAPEGAGHGLVLDEKAVERYLA”, the “soluble on expression in E. coli” value is listed as “soluble”.

Consider “MKIKSIEPTPSPNTMKVILTEELPAGKSNNYKPEQAEGAPLVIAEILKIDGVKGVYHVADFLAVERNARYDWKDILPQVRTAFGMESAESAEENRSDQESFGEVKVFVQMFSGIPMQVKLTDGEREERFGLPERFQQAILKLRSEASNVVFERAWKEQGVRFGDFDEIGHDVTEELQAAYSDERLKRLTEAAAQGKGEAKQAVQRKAYKVTLDMLDDEDWKKRYAHLEQMDPKEEDIPVLQKALDDPKVSIRRQAVVYLGMIETPDVLPLLYKALEDKAVSVRRTAGDCLSDIGDPQAIPAMIKSLSDSSKLVRWRAAMFLYEVGDESAIEALRAAEDDPEFEVSLQVKMALERIEHGEEAKGSVWKQMTESRKKGE”, for which the “soluble on expression in E. coli” value was “soluble”.

For the sequence “MKILILGNGQVGSTVAQNLAAIPNNDVTVIDIDEKALQETGSRLDVQTVFGNGASPFTLERAGAEDADLLLALSRSDETNIVACKVAADLFNIPGRIARVRSSEYLEYLSPKLENNENGSLSIFGITETISPEQLVTEQLAGLIDCPGALQVLRFADDRVRMVIIQARRGGLLVGRSIADIAQDLPDGADCQICAVYRNNRLIVPAPQTVIIEGDEILFAAAAENIGAVIPELRPKETSTRR”, the “soluble on expression in E. coli” value is “not soluble”.

Consider “MKILLIGASGTLGSAVKERLEKKAEVITAGRHSGDVTVDITNIDSIKKMYEQVGKVDAIVSATGSATFSPLTELTPEKNAVTISSKLGGQINLVLLGIDSLNDKGSFTLTTGIMMEDPIVQGASAAMANGAVTAFAKSAAIEMPRGIRINTVSPNVLEESW”, for which the “soluble on expression in E. coli” value was “not soluble”.

As to “MKILLRNALITNEGKTFPGSVMIDGAFISRIIEGELPADDNLSADEVIECSGLRLFPGCIDDQVHFREPGLTHKATIASESRAAVAGGVTSFMDMPNTNPPTTMWERLLEKRQIGADTAWANYGFFFGGTNDNIDEIKRVDKHLVPGLKLFLGSSTGNMLVDNKETLEKIFGECDLLIATHCEKEEIIRANKEHYKAKYGNDLDIHFHPLIRSEEACYRSSAEAVELAERMNARLHILHLSTEKELSLFRNDIPTAQKRITSEVCVHHLWFSDTDYGRLGNRIKWNPAIKKESDREALRAAVRNGRIDIIATDHAPHLLREKEGSCLQAASGGPLVQHSLLALLELCNQ”, the “soluble on expression in E. coli” value is “not soluble”.

With “MKILLRNALITNEGKTFPGSVMIDGAFISRIIEGELPADDNLSADEVIECSGLRLFPGCIDDQVHFREPGLTHKATIASESRAAVAGGVTSFMDMPNTNPPTTMWERLLEKRQIGADTAWANYGFFFGGTNDNIDEIKRVDKHLVPGLKLFLGSSTGNMLVDNKETLEKIFGECDLLIATHCEKEEIIRANKEHYKAKYGNDLDIHFHPLIRSEEACYRSSAEAVELAERMNARLHILHLSTEKELSLFRNDIPTAQKRITSEVCVHHLWFSDTDYGRLGNRIKWNPAIKKESDREALRAAVRNGRIDIIATDHAPHLLREKEGSCLQAASGGPLVQHSLLALLELCNQGIFSIEEIVSKTAHIPATLFAIEKRGYIRPGYYADLVLVDPSSPHTVSADNILSLCGWSPFEGFTFSHSVAYTFVNGCLAYAKGRLAESRPTVHPLFFNR”, the “soluble on expression in E. coli” value is recorded as “soluble”.

In the case of “MKILVIGAGPAGLVFASQLKQARPLWAIDIVEKNDEQEVLGWGVVLPGRPGQHPANPLSYLDAPERLNPQFLEDFKLVHHNEPSLMSTGVLLCGVERRGLVHALRDKCRSQGIAIRFESPLLEHGELPLADYDLVVLANGVNHKTAHFTEALVPQVDYGRNKYIWYGTSQLFDQMNLVFRTHGKDIFIAHAYKYSDTMSTFIVECSEETYARARLGEMSEEASAEYVAKVFQAELGGHGLVSQPGLGWRNFMTLSHDRCHDGKLVLLGDALQSGHFSIGHGTTMAVVVAQLLVKALCTEDGVPAALKRFEERALPLVQLFRGHADNSRVWFETVEERMHLSSAEFVQSFDARRKSLPPMPEALAQNLRYALQRLEHHHHHH”, the “soluble on expression in E. coli” value is given as “soluble”.

For the sequence “MKIRILGSGTSTGVPEIGCTCAVCTSKDPRDCRLRTSALVYTDDATILLDCGPDFREQMLRVPFGKIDAVLISHEHYDHVGGLDDLRPFCRFGEVPIYAETYTAERLRSRMPYCFVEHSYPGVPNIPLREIEPNRPFLVNHTEVLPLRVMHGKLPILGYRIGKLGYITDMLTMPDESFEQLQGIEVLVMNALRIAPHNTHQSLSEALEAVKRIGAKETWLIHMSHHIGLQADVEKQLPPHVHFAFDGLELECLEHHHHHH”, the “soluble on expression in E. coli” value was “not soluble”.

Regarding “MKISIVIVTYNRIPALCELLESISRQTLMPYEIIIVNDAGESVVPVKALYPELPIAVINLEKNSGHVAARNAGVKEASGDCIMLCDDDDFFTPGHIEKMAKEIETADFVHSDAEIVSFEEKNGTRYPVSRKLFAYTADYEDMRVFSTYVPSGSMYRRFLHDEIGYFDADVHNYWDWDFYLRAAKDYRVKRVPCASVIYAFSDAGDNQSADLGAKRKQYLDRLSEKHGLGELPTKNFAVLLEEPEMKRREAKSEMVWDGEPVYSRLHRSLEHHHHHH”, the “soluble on expression in E. coli” value is recorded as “not soluble”.

Consider “MKISVITINYNNGEQLEATIQSVVSNVTVLRELLGEKAEYIVIDGGSVDCSVSVLQKYSEYISYWISEKDKGIYHAMNKGISVAQGEYCFFLNSGDTFYEDDTLKKALLFLKEDFVCGNAVLKYAGGINEWSAPEIVNTLFFMQRFSVCHQSLFIRTELLKSHPYNETLMIVADYEQMFYEIAVNHRSYKKIDLTICYYGCDGVSSDHEKADAEKRSVINEFRYLGYIEPDELWNVVSKLKIGTRKYRLLLSLAKCLTSSPKYWVRLEHHHHHH”, for which the “soluble on expression in E. coli” value is recorded as “soluble”.

For the sequence “MKISVLVPTLGTREKEIRRLLETLEKQSYKDFEIIFVTQDNHEIVKDIIYKYSNLDIKQIEMSVKGLSRARNRGLEQASGEIVVLSDDDCWYPANAFEIVVNAFKKRQCAKIVLSQIFDPEKNIPYKNYTSDEEYVRNKLQLMSKSSIEVAFKKDLVMNKKFDERLGLGSEFVCGEEVDFLLSNYEKNAIFYIPEVTVYHKKKENGSSNKQIIAKGAIYGKNFNIFICVLVLLRDLMLKKENNFKYFFEGYNEYFKRTN”, the “soluble on expression in E. coli” value is on record as “not soluble”.

“MKIVAITSCPNGIAHTYMAQEKLEQVAKEMGVDIKVETQGGVGAENVLTTQDIEEADGVIIAADKQVDLSRFVGKRLINENVREGIHNPRGLIQRIINQDAPIYQSETN”: the “soluble on expression in E. coli” value is recorded as “not soluble”.

“MKIVSKSSPLPLHYQLKMILQEMIENEELLPGDTIPTERELCEIQKISRMTVNKAILSLVSEGILYREQGKGTFVAKKKEKQQLTKLKSFTEEMREKGLNISTKILSFEIKTATKHISTLLELPHKKMKVIEIIRLRLTDNDPSAIETVVLPLYLFSDMTKEVIDGKSLYNTFREKYGYEPTKAKQTIEPIMLTDYEAKFLNQVGNSLALLFRRLTYRKDGVPIEYTKSIYRSEKYKYEVILT”: the “soluble on expression in E. coli” value is on record as “not soluble”.
